In PMC6208366 (2018):
Where two headings read alike, the source gives them in different places.

What was measured:
[1] = molecular target: human full-length Hsp90β (human, UniProt P08238 1-724); experiment: ITC
[2] = molecular target: T1, full-length human Tau (htau40, 441 residues, 2N4R) (human, UniProt P10636-8 1-441)
[3] = molecular target: T1, full-length human Tau (htau40, 441 …); experiment: Hsp90 in presence of FKBP51 (1:1)
[4] = molecular target: T1, full-length human Tau (htau40, 441 …); remark: listed apart in the source

Chain of human full-length Hsp90β (P08238 whole entry): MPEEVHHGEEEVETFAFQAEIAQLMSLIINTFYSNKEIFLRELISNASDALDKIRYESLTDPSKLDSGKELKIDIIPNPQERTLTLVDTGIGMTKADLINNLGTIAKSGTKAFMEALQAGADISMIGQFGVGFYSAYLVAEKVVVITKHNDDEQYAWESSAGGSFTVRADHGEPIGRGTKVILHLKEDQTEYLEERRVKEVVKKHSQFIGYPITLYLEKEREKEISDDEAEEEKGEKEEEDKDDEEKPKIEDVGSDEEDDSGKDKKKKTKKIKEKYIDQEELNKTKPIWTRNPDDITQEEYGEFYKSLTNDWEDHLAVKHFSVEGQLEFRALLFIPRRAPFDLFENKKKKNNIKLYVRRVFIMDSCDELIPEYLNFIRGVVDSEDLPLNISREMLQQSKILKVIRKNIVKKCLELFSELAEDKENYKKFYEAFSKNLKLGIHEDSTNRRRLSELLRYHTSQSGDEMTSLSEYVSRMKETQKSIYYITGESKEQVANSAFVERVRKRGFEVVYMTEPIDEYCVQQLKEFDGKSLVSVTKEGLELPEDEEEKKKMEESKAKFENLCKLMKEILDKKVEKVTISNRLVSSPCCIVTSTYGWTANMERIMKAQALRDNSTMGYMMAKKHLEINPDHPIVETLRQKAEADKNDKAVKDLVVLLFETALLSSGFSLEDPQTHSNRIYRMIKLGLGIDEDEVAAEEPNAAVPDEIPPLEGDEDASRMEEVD

B1: full-length human FKBP51 (natural protein)
chain: MTTDEGAKNNEESPTATVAEQGEDITSKKDRGVLKIVKRVGNGEETPMIGDKVYVHYKGKLSNGKKFDSSHDRNEPFVFSLGKGQVIKAWDIGVATMKKGEICHLLCKPEYAYGSAGSLPKIPSNATLFFEIELLDFKGEDLFEDGGIIRRTKRKGEGYSNPNEGATVEIHLEGRCGGRMFDCRDVAFTVGEGEDHDIPIGIDKALEKMQREEQCILYLGPRYGFGEAGKPKFGIEPNAELIYEVTLKSFEKAKESWEMDTKEKLEQAAIVKEKGTVYFKGGKYMQAVIQYGKIVSWLEMEYGLSEKESKASESFLLAAFLNLAMCYLKLREYTKAVECCDKALGLDSANEKGLYRRGEAQLLMNEFESAKGDFEKVLEVNPQNKAARLQISMCQKKAKEHNERDRRIYANMFKKFAEQDAKEEANKAMGKKTSEGVTNEKGTDSQAMEEEKPEGHV
Kd [1]: 249 nM | Kd [2]: 45.1 µM

B2: IANBD-labeled Hsp90 M362C/FKBP51 (1:1) complex (complex)
chain 1: not shown
chain 2: MTTDEGAKNNEESPTATVAEQGEDITSKKDRGVLKIVKRVGNGEETPMIGDKVYVHYKGKLSNGKKFDSSHDRNEPFVFSLGKGQVIKAWDIGVATMKKGEICHLLCKPEYAYGSAGSLPKIPSNATLFFEIELLDFKGEDLFEDGGIIRRTKRKGEGYSNPNEGATVEIHLEGRCGGRMFDCRDVAFTVGEGEDHDIPIGIDKALEKMQREEQCILYLGPRYGFGEAGKPKFGIEPNAELIYEVTLKSFEKAKESWEMDTKEKLEQAAIVKEKGTVYFKGGKYMQAVIQYGKIVSWLEMEYGLSEKESKASESFLLAAFLNLAMCYLKLREYTKAVECCDKALGLDSANEKGLYRRGEAQLLMNEFESAKGDFEKVLEVNPQNKAARLQISMCQKKAKEHNERDRRIYANMFKKFAEQDAKEEANKAMGKKTSEGVTNEKGTDSQAMEEEKPEGHV
modifications: IANBD amide fluorescent dye on Cys362 (M362C)
Kd [3]: 8.2 µM

B3: IANBD-labeled Hsp90 M362C (natural protein)
chain: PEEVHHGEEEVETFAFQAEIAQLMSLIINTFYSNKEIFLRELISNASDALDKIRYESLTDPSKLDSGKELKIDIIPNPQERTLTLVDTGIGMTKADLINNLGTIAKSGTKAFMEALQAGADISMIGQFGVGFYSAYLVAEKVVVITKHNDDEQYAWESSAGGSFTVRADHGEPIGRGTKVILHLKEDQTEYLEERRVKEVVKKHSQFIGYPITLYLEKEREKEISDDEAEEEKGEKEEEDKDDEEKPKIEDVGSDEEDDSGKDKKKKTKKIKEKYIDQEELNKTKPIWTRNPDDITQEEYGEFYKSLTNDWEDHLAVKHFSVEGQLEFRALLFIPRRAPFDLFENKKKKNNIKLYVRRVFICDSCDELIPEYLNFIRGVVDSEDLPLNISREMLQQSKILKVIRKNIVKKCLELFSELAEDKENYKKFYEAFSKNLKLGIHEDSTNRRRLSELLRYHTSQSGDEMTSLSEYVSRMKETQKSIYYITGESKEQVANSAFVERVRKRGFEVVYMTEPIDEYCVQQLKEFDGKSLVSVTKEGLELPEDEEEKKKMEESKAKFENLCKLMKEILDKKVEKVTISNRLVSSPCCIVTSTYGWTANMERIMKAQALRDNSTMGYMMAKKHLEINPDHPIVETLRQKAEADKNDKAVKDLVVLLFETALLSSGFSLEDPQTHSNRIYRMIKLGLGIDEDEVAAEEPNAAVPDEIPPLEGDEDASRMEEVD
modifications: IANBD amide fluorescent dye on Cys362 (M362C)
Kd [4]: 4.2 µM
